assay: yeast display, Sf9 membrane polyspecificity reagent, FACS + sequencing; frameworks hold sequencing errors
Outline: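 After 36–48 hours of galactose induction, yeast (Saccharomyces cerevisiae BJ5465) displaying a synthetic nanobody library were stained at 4 °C for 1 hour with 10% biotinylated, detergent-solubilized Sf9 membrane reagent. Streptavidin microbeads enriched the stained cells before FACS sorting into low and high (top ~1%) gates on anti-HA and streptavidin fluorescence. Each clone's polyreactivity label reflects its gate of origin.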

Sequence | polyreactivity (PSR sort gate)
QVQLVESGGGLVQAGGSLRLSCAASGRIFWDNAMGWYRQAPVKERELVAAISGGASTYADSVKGRFTISRDNAKNTVYLQMNSLKAEDTSVYYCYAFQSPVEEEYYWGQGTQVTVSS | low polyreactivity
QVQLVESGGGLVQAGGSLRLSCAASGRIFWGNAMGWYRQAPGKERELVAAINWSGGSTYYADSVKGRFTISRDNAKNTVYLQMNTLKPEDTAVYYCAADANGIVRYYYWGQGTQVTVSS | low polyreactivity
QVQLVESGGGLVQAGGSLRLSCAASGRIFWGNAMGWYRQAPGKERELVAAITRRGGTTFYADSVKGRFTISRDNAKNTVYLQMNSLKPEDTAVYYCAARRYGQYDGYDSWGQGTQVTVSS | high polyreactivity
QVQLVESGGGLVQAGGSLRLSCAASGRIFWGSTMVWYRQAPGKEMELVAAITYRGATTYYADSVKGRFTISRDNAKNTVYLQMNSLKPEDTAVYYCAAEYYYTYGYWGQGTQVTVSS | high polyreactivity
QVQLVESGGGLVQAGGSLRLSCAASGRIFWHNAMGWYRQAPGKERELVAAISSRGGSTSYADSVKGRFTISRDNAKNTVYLQMNSLKPEDTAVYYCNARNQGYYRVWGYRGDYWGQGTQVTVSS | low polyreactivity
QVQLVESGGGLVQAGGSLRLSCAASGRIFWINAMGWYRQAPGKERELVAAITTDGGTTYYADSVKGRFTISRDNAKNTVYLQMNSLKPEDTAVYYCAADAAGQYWWQTYDYWGQGTQVTVSS | high polyreactivity
QVQLVESGGGLVQAGGSLRLSCAASGRIFWINAMGWYRQATGKERELVATISSGSTSYADSVKGRFTISRDNAKNTVYLQMNSLKPEDTAVYYCAVTLRYTRSGAYDYWGQGTQVTVSS | low polyreactivity
QVQLVESGGGLVQAGGSLRLSCAASGRIFWPNAMGWYLQAPGKESEFVAAIRWSSDRTYYADSVKGRFTISRDNAKNTVYLQMNSLKPEYTAVYYCNAVRYVISKYDYWGHGTQVTVSS | high polyreactivity
QVQLVESGGGLVQAGGSLRLSCAASGRIFWPYAMGWSRQAPGKERELVAAITSGGSTYYADSVKGRFTISRDNAKNTVYLQMNSLKPEDTAVYYCAKRSSGVSVPVAYGGIKRYNSWGQGTQVTVSS | low polyreactivity
QVQLVESGGGLVQAGGSLRLSCAASGRIFWRNAMGWSRQAPGKERELVAAISSGGSTYYADSVKGRFTISRDNAKNTVYLQMNSLKPEDTAVYYCAARSSWRGVRYDHFERVYWGQGTQVTVSS | high polyreactivity
QVQLVESGGGLVQAGGSLRLSCAASGRIFWRYAMGWYRQAPGKERELVAAITGRTGSTNYADSVKGRFTISRDNAKNTVYLQMNSLKPEDTAVYYCAAAHHRWTGLYPSGYEFDYWGQGTQVTVSS | low polyreactivity
QVQLVESGGGLVQAGGSLRLSCAASGRIFWSNAMGWYRQAPGKERELVAAIRWSGGSTYYADSVKGRCTISRDNAKTTVYLQMNSLKPEDTAVYYCAASPYWSDWTKVDSWGQGTQVTVSS | low polyreactivity
QVQLVESGGGLVQAGGSLRLSCAASGRIFWSYDMGWYRQAPGKERELVASITSDGSTNYADSVKGRFTISRDNAKNTVYLQMNSLKPEDTAVYYCAARPYQYDPFAQGDGGKYDYWGQGTQVTVSS | low polyreactivity
QVQLVESGGGLVQAGGSLRLSCAASGRIFWTNDMGWYSKAPGKERELVAGITWRGGSTYYADSVKGRFTISRDNAKNTVYLQMNSLKPEDTAVYYCATRYRRVYTWYDYWGQGTQVTVSS | high polyreactivity
QVQLVESGGGLVQAGGSLRLSCAASGRIFWTYAMGWYRQAPGKERELVAAITSGGSTYYADSVKGRVTISRDNAKNTVYLLMNSLKPEDTAVYYCAATSYYYNFMEHDYWGQGTQVTVSS | high polyreactivity
QVQLVESGGGLVQAGGSLRLSCAASGRIFWWYAMGWYRQAPGKERELVASISSRGTSTYYADSVKGRFTISRDNAKHTVYLQMNSLKPEDTAFYYCAARRPGRTSQDRYKYDYWGQGTQVTVSS | high polyreactivity

Sequence | polyreactivity (PSR sort gate)
QVQLVESGGGLVQAGGSLRLSCAASGRIFWYNALGWYRQAPGKEREVVAAISWRGSRTYYADSVKGRFTISRDNAKNTVYLQMNSLKPEETAVYYCAAVIKWTKDDYWGQGTQVTVSS | high polyreactivity
QVQLVESGGGLVQAGGSLRLSCAASGRIFWYYAIGWYRQAPGKEREIVAAISRSGGTTYYADSVKGRFTISRDNAKNTVYLQMNSLKPEDTAVYYCAAVYHAYTGYEAWYEYDYWGQGTQVTVSS | high polyreactivity
QVQLVESGGGLVQAGGSLRLSCAASGRIFWYYAMGWYRQAAGKERELVAAISSGTTKYADSVKGRFTISRDNAKNTVYLQMNSLKPEDTAVYYCNAAAYYPTNYGGYLFEYWGQGTQVTVSS | low polyreactivity
QVQLVESGGGLVQAGGSLRLSCAASGRIFWYYAMGWYRQAPGKERELVADISTGGSTNYADSVKGRFTISRDNAKNTVYLQMNSLKPEDTAVYYCATTVPVILYVTPSTYAVVGYEYWGQGTQVTVSS | low polyreactivity
QVQLVESGGGLVQAGGSLRLSCAASGRIFWYYAMGWYRQAPGKERELVATISYGGGNTYYADSVKGRFTISRDNAKNTVYLQMNSLKPEDTAVYDCARVPYAYLPYKPFQQYSYDYWGQGTQVTVSS | high polyreactivity
QVQLVESGGGLVQAGGSLRLSCAASGRIFWYYNMGRYRQAPGKERELVASINSDTGTYYADSVKGRFTISRDNAKNTVYLQMNSLKPEDTAVYYCTRDSESDANTFTTSGIDEPYDYWGQGTQVTVSS | low polyreactivity
QVQLVESGGGLVQAGGSLRLSCAASGRIFYANAMGWYRQAPGKERELVAAISSGGSTYYADSVKGRFTISRDNANNTVYLQMNSLKPEDTAVYYFAASTVGQTFSYYVDTYDYWGQGTQVTVSS | low polyreactivity
QVQLVESGGGLVQAGGSLRLSCAASGRIFYANAMGWYRQAPGKERELVAGISSGGITNYADSVKGRFTISRDNAKNTVYLQMNSLKPEDTAVYYCAVESWNRWRNRNDYWGQGSQVTVSS | low polyreactivity
QVQLVESGGGLVQAGGSLRLSCAASGRIFYAYAMGLYRQAPGKERELVAAITWSGGSTYYADSVKGRFTISRDNAKNTVYLQMNSLKQEDTAVYYCAADLRVKYVHTYSYVWYRYDYWGQGTQVTVSS | high polyreactivity
QVQLVESGGGLVQAGGSLRLSCAASGRIFYAYAMGWYRQAPGKERVFVAAISKRGGSTYYADSVKGRFTISRDNAKNTVYLQMNSRKPEDTAVYYCAADHEAIVRYDYWGQGTQVTVSS | low polyreactivity
QVQLVESGGGLVQAGGSLRLSCAASGRIFYDNAMGWYRQAPGKERELVAAISYSGDSTYYADSVKGRFTISRDNAKNTVYLQMNSLKPEDTAVYYCAAVYISQGAFAYDYWGQGTQVTVSS | low polyreactivity
QVQLVESGGGLVQAGGSLRLSCAASGRIFYDYAMGWYRQAPGKERELVAAISGSGGSTYYADSVKGRFTISRDKAKNTVYLQMNSLQPEDTEVYYCNRYTTRYYPGGDYWGHGTQVTVSS | high polyreactivity
QVQLVESGGGLVQAGGSLRLSCAASGRIFYEYAMGWYRQAPGKERELVAISTSGGNTYYADSVKGRFTISRDNAKNTVYLQMNSLKPEDTAVYYCAARLQYYPYYYWGQGTQVTVSS | high polyreactivity
QVQLVESGGGLVQAGGSLRLSCAASGRIFYEYASGWYRQAPGKERELVAISTSGGNTYYADSVKGRFTISRDNAKNTVYLQMNSLKPDDTAVYYCAARLQYYPYYYWGQGTQVTVSS | high polyreactivity
QVQLVESGGGLVQAGGSLRLSCAASGRIFYFNAMGWYRQAPGKERELVAAISGSGGDTYYADSVKGRFTISRDNAKNTVYLQMNSLNPEDTAVYYCAAEVYTWGQGTQVTVSS | low polyreactivity
